# From patent publication US20250197503A1 (SHANGHAI INSTITUTE OF MATERIA MEDICA CHINESE ACADEMY OF …, published 2025)
# Biological target: T1, human PD-L1 protein (ELISA antigen) (human, UniProt Q9NZQ7 19-238, limits assumed)
# T1 construct: One molecule is used for both ELISAs; also called PD-L1-biotin protein
# Assay: relative to original antibody h_Nb1 (SEQ ID NO. 1); ELISA comparison per Example 10
# T1 sequence (Q9NZQ7 19-238 limits assumed): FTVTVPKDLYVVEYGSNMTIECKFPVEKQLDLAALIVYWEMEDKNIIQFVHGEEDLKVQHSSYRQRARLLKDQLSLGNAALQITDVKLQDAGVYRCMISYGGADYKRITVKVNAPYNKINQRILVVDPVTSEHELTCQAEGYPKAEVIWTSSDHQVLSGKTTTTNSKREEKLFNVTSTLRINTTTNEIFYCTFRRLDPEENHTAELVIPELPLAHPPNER
row,Improved value of relative affinity,Binder
1,4.12,"h_Nb1_A61K (VHH, also called 74) VHH: DVQLQESGGGLVQPGGSLRLSCAASGFTFSSYAMSWVRQAPGKGLEWVSDINSGGDNTDYKDSVKGRFTISRDNAKNTLYLQMNSLKPEDTAVYYCARGPKLCFSSWGQGTQVTVSS"
2,5.8,"h_Nb1_D62Y (VHH, also called 79) VHH: DVQLQESGGGLVQPGGSLRLSCAASGFTFSSYAMSWVRQAPGKGLEWVSDINSGGDNTDYAYSVKGRFTISRDNAKNTLYLQMNSLKPEDTAVYYCARGPKLCFSSWGQGTQVTVSS"
3,5.12,"h_Nb1_D59F (VHH, also called 77) VHH: DVQLQESGGGLVQPGGSLRLSCAASGFTFSSYAMSWVRQAPGKGLEWVSDINSGGDNTFYADSVKGRFTISRDNAKNTLYLQMNSLKPEDTAVYYCARGPKLCFSSWGQGTQVTVSS"
4,3.83,"h_Nb1_C103W (VHH, also called 82) VHH: DVQLQESGGGLVQPGGSLRLSCAASGFTFSSYAMSWVRQAPGKGLEWVSDINSGGDNTDYADSVKGRFTISRDNAKNTLYLQMNSLKPEDTAVYYCARGPKLWFSSWGQGTQVTVSS"
5,5.13,"h_Nb1_A61N (VHH, also called 72) VHH: DVQLQESGGGLVQPGGSLRLSCAASGFTFSSYAMSWVRQAPGKGLEWVSDINSGGDNTDYNDSVKGRFTISRDNAKNTLYLQMNSLKPEDTAVYYCARGPKLCFSSWGQGTQVTVSS"
6,6.16,"h_Nb1_G99W (VHH, also called 85) VHH: DVQLQESGGGLVQPGGSLRLSCAASGFTFSSYAMSWVRQAPGKGLEWVSDINSGGDNTDYADSVKGRFTISRDNAKNTLYLQMNSLKPEDTAVYYCARWPKLCFSSWGQGTQVTVSS"
7,6.16,"h_Nb1_G99Q (VHH, also called 84) VHH: DVQLQESGGGLVQPGGSLRLSCAASGFTFSSYAMSWVRQAPGKGLEWVSDINSGGDNTDYADSVKGRFTISRDNAKNTLYLQMNSLKPEDTAVYYCARQPKLCFSSWGQGTQVTVSS"
8,3.38,"h_Nb1_C103M (VHH, also called 81) VHH: DVQLQESGGGLVQPGGSLRLSCAASGFTFSSYAMSWVRQAPGKGLEWVSDINSGGDNTDYADSVKGRFTISRDNAKNTLYLQMNSLKPEDTAVYYCARGPKLMFSSWGQGTQVTVSS"
9,4.28,"h_Nb1_D59R (VHH, also called 75) VHH: DVQLQESGGGLVQPGGSLRLSCAASGFTFSSYAMSWVRQAPGKGLEWVSDINSGGDNTRYADSVKGRFTISRDNAKNTLYLQMNSLKPEDTAVYYCARGPKLCFSSWGQGTQVTVSS"
10,4.9,"h_Nb1_D59M (VHH, also called 76) VHH: DVQLQESGGGLVQPGGSLRLSCAASGFTFSSYAMSWVRQAPGKGLEWVSDINSGGDNTMYADSVKGRFTISRDNAKNTLYLQMNSLKPEDTAVYYCARGPKLCFSSWGQGTQVTVSS"
11,4.66,"h_Nb1_A61Q (VHH, also called 73) VHH: DVQLQESGGGLVQPGGSLRLSCAASGFTFSSYAMSWVRQAPGKGLEWVSDINSGGDNTDYQDSVKGRFTISRDNAKNTLYLQMNSLKPEDTAVYYCARGPKLCFSSWGQGTQVTVSS"
12,11.7,"h_Nb1_D62W (VHH, also called 78) VHH: DVQLQESGGGLVQPGGSLRLSCAASGFTFSSYAMSWVRQAPGKGLEWVSDINSGGDNTDYAWSVKGRFTISRDNAKNTLYLQMNSLKPEDTAVYYCARGPKLCFSSWGQGTQVTVSS"
13,7.02,"h_Nb1_G99Y (VHH, also called 86) VHH: DVQLQESGGGLVQPGGSLRLSCAASGFTFSSYAMSWVRQAPGKGLEWVSDINSGGDNTDYADSVKGRFTISRDNAKNTLYLQMNSLKPEDTAVYYCARYPKLCFSSWGQGTQVTVSS"
14,3.31,"h_Nb1_C103K (VHH, also called 80) VHH: DVQLQESGGGLVQPGGSLRLSCAASGFTFSSYAMSWVRQAPGKGLEWVSDINSGGDNTDYADSVKGRFTISRDNAKNTLYLQMNSLKPEDTAVYYCARGPKLKFSSWGQGTQVTVSS"
15,12.1,"h_Nb1_G99R (VHH, also called 83) VHH: DVQLQESGGGLVQPGGSLRLSCAASGFTFSSYAMSWVRQAPGKGLEWVSDINSGGDNTDYADSVKGRFTISRDNAKNTLYLQMNSLKPEDTAVYYCARRPKLCFSSWGQGTQVTVSS"

# Biological target: T1, human PD-L1 protein (ELISA antigen)
# Assay: relative to original antibody h_Nb2 (SEQ ID NO. 5); ELISA comparison per Example 10
row,Improved value of relative affinity,Binder
1,1.46,"h_Nb2_F29R (VHH, also called 93) VHH: DVQLQESGGGLVQPGGSLRLSCAASGFTRGDRWMYWLRQAPGKGLEWVSSINPAGRSTYYADSVKGRFTISRDNAKNTLYLQMNSLKSEDTAVYYCTKDPGGYQKGQGTQVTVSS"
2,8.48,"h_Nb2_G101Y (VHH, also called 92) VHH: DVQLQESGGGLVQPGGSLRLSCAASGFTFGDRWMYWLRQAPGKGLEWVSSINPAGRSTYYADSVKGRFTISRDNAKNTLYLQMNSLKSEDTAVYYCTKDPYGYQKGQGTQVTVSS"
3,10,"h_Nb2_G30W (VHH, also called 89) VHH: DVQLQESGGGLVQPGGSLRLSCAASGFTFWDRWMYWLRQAPGKGLEWVSSINPAGRSTYYADSVKGRFTISRDNAKNTLYLQMNSLKSEDTAVYYCTKDPGGYQKGQGTQVTVSS"
4,5.11,"h_Nb2_G30F (VHH, also called 88) VHH: DVQLQESGGGLVQPGGSLRLSCAASGFTFFDRWMYWLRQAPGKGLEWVSSINPAGRSTYYADSVKGRFTISRDNAKNTLYLQMNSLKSEDTAVYYCTKDPGGYQKGQGTQVTVSS"
5,5.92,"h_Nb2_G101W (VHH, also called 91) VHH: DVQLQESGGGLVQPGGSLRLSCAASGFTFGDRWMYWLRQAPGKGLEWVSSINPAGRSTYYADSVKGRFTISRDNAKNTLYLQMNSLKSEDTAVYYCTKDPWGYQKGQGTQVTVSS"
6,3.98,"h_Nb2_P100E (VHH, also called 97) VHH: DVQLQESGGGLVQPGGSLRLSCAASGFTFGDRWMYWLRQAPGKGLEWVSSINPAGRSTYYADSVKGRFTISRDNAKNTLYLQMNSLKSEDTAVYYCTKDEGGYQKGQGTQVTVSS"
7,6.5,"h_Nb2_G101R (VHH, also called 90) VHH: DVQLQESGGGLVQPGGSLRLSCAASGFTFGDRWMYWLRQAPGKGLEWVSSINPAGRSTYYADSVKGRFTISRDNAKNTLYLQMNSLKSEDTAVYYCTKDPRGYQKGQGTQVTVSS"
8,1.44,"h_Nb2_F29W (VHH, also called 94) VHH: DVQLQESGGGLVQPGGSLRLSCAASGFTWGDRWMYWLRQAPGKGLEWVSSINPAGRSTYYADSVKGRFTISRDNAKNTLYLQMNSLKSEDTAVYYCTKDPGGYQKGQGTQVTVSS"
9,6.23,"h_Nb2_G30R (VHH, also called 87) VHH: DVQLQESGGGLVQPGGSLRLSCAASGFTFRDRWMYWLRQAPGKGLEWVSSINPAGRSTYYADSVKGRFTISRDNAKNTLYLQMNSLKSEDTAVYYCTKDPGGYQKGQGTQVTVSS"
